# In US20220235345A1 (University of California, published 2022):
# Ends that are not written are not given here.
# T1: separase biosensor H2B-mRuby2-Scc1(142-467)-mNeonGreen, wild-type (UniProt O60216)
# T1 sequence (O60216 whole entry, looked up): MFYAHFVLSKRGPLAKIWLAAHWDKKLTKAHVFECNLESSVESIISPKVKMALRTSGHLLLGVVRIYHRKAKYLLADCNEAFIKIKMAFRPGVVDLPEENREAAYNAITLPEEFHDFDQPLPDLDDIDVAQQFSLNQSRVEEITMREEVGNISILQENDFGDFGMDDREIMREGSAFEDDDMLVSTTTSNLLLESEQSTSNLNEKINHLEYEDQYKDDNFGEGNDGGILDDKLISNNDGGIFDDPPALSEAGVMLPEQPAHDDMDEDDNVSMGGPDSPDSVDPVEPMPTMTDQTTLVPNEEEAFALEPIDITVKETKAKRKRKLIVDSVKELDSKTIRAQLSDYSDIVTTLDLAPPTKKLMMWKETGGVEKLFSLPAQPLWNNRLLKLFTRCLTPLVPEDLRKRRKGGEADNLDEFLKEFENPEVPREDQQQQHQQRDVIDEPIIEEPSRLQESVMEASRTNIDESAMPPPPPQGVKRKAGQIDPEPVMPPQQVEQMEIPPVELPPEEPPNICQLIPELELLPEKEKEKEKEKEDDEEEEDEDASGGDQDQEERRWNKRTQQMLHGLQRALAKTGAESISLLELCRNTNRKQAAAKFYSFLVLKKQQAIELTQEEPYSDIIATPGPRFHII
# Key:
# [1] = tested on: securin^RE fragment containing residues 93-150
# [2] = tested on: Mca-DDREIMREGS-Dnp peptide containing Scc1 site 1
# [3] = biological target: catalytically-dead separase with intact autocleavage sites (UniProt Q14674)
# [4] = biological target: 35S-labeled human Scc1 fragment (residues 142-300) (UniProt O60216)
# [5] = biological target: T1, separase biosensor H2B-mRuby2-Scc1(142-467)-mNeonGreen, wild-type
# [6] = biological target: separase biosensor H2B-mRuby2-Scc1(142-467)-mNeonGreen with 255Leu-Pro to Ala-Ala (UniProt O60216)
# [7] = biological target: separase biosensor H2B-mRuby2-Scc1(142-467)-mNeonGreen with deletion of Scc1 aa 251 to 260 (UniProt O60216)
# [8] = biological target: T2, active human separase, securin-free (ClpXP-activated separase obtained from the securin-separase fusion after … (human, UniProt Q14674 1-2120)); assay: in vitro cleavage of 35S-labeled securin^RE fragments with LP mutations by separase; interaction inferred from cleavage
# T2 construct: also called active separase; apo separase; not shown: N-terminal remnant left after TEV cleavage of the fusion (3x FLAG tag between TEV site and separase)
# Excerpt: An approach for investigating the importance of ¹³⁰LPE for securin binding to separase was developed. It is known that fungal securin can be converted to a separase substrate by making mutations that convert the pseudosubstrate site into a cleavage site⁴. The equivalent mutations were made in human securin (¹¹⁸FP to RE) and this securin^RE mutant was used to test the importance of ¹³⁰LPE for securin engagement with separase. An LP sequence a few residues further downstream (¹³⁹LP) was also tested. […] A securin^RE fragment containing residues 93-150 was then tested. […] Mutation of ¹³⁹LP had no effect, except when combined with mutation of ¹³⁰LP.
# T2 sequence (Q14674 other isoform, or with tags, fused parts or gaps): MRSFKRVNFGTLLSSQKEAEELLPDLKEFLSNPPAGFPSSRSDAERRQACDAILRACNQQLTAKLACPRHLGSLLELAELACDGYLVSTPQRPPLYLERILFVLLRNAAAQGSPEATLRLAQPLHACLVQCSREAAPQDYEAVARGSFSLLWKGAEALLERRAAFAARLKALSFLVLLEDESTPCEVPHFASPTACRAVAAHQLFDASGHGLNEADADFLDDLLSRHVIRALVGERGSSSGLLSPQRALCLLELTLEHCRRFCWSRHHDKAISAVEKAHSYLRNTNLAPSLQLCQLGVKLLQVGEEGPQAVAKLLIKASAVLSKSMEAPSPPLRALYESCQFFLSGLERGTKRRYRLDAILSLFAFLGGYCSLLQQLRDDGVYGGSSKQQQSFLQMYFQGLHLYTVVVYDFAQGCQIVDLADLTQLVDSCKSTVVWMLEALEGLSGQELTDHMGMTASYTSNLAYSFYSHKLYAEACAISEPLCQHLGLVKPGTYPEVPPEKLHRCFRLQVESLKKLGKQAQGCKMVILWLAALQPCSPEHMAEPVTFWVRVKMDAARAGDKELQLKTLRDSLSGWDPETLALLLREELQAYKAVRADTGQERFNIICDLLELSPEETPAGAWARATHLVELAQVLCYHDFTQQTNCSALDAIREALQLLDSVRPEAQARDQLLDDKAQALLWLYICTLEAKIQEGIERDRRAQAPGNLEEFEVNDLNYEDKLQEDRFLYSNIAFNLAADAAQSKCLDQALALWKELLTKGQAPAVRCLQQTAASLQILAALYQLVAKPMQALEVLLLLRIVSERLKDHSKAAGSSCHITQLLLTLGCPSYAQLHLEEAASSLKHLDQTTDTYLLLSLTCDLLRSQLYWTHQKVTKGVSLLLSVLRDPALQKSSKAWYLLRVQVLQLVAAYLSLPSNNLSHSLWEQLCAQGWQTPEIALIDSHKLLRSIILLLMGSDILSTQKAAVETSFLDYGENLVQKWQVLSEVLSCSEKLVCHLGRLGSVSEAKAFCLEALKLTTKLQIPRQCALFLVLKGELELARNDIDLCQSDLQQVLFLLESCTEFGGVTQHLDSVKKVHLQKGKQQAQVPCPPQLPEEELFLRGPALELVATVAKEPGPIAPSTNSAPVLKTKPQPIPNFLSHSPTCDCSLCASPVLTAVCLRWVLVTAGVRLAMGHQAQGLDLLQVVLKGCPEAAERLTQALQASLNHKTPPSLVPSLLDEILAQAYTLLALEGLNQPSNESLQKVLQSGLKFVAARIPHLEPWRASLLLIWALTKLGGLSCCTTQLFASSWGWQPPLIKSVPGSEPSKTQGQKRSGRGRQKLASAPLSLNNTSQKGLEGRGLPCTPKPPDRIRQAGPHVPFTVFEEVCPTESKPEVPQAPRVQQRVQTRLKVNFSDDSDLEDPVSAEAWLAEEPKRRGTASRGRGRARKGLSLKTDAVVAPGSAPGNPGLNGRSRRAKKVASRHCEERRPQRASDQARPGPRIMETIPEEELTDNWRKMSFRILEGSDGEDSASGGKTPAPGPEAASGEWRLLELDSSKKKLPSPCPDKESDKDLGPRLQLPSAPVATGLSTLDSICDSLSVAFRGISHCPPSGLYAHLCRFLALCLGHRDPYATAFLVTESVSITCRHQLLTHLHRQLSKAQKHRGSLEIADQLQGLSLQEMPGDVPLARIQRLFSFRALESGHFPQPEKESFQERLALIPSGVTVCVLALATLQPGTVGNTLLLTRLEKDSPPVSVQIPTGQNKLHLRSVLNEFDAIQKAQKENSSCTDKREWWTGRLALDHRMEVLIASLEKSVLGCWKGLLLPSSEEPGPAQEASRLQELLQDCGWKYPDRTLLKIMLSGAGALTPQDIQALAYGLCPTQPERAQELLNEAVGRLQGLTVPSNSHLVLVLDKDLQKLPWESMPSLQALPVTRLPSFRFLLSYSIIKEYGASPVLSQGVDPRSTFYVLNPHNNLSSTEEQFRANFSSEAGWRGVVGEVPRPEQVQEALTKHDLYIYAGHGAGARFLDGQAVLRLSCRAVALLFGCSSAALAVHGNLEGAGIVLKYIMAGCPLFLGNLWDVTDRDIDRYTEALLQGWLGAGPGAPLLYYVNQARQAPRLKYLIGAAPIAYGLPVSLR
# Chain of catalytically-dead separase with intact autocleavage sites (Q14674 whole entry S1126A/C2029S, the tested form may be a part): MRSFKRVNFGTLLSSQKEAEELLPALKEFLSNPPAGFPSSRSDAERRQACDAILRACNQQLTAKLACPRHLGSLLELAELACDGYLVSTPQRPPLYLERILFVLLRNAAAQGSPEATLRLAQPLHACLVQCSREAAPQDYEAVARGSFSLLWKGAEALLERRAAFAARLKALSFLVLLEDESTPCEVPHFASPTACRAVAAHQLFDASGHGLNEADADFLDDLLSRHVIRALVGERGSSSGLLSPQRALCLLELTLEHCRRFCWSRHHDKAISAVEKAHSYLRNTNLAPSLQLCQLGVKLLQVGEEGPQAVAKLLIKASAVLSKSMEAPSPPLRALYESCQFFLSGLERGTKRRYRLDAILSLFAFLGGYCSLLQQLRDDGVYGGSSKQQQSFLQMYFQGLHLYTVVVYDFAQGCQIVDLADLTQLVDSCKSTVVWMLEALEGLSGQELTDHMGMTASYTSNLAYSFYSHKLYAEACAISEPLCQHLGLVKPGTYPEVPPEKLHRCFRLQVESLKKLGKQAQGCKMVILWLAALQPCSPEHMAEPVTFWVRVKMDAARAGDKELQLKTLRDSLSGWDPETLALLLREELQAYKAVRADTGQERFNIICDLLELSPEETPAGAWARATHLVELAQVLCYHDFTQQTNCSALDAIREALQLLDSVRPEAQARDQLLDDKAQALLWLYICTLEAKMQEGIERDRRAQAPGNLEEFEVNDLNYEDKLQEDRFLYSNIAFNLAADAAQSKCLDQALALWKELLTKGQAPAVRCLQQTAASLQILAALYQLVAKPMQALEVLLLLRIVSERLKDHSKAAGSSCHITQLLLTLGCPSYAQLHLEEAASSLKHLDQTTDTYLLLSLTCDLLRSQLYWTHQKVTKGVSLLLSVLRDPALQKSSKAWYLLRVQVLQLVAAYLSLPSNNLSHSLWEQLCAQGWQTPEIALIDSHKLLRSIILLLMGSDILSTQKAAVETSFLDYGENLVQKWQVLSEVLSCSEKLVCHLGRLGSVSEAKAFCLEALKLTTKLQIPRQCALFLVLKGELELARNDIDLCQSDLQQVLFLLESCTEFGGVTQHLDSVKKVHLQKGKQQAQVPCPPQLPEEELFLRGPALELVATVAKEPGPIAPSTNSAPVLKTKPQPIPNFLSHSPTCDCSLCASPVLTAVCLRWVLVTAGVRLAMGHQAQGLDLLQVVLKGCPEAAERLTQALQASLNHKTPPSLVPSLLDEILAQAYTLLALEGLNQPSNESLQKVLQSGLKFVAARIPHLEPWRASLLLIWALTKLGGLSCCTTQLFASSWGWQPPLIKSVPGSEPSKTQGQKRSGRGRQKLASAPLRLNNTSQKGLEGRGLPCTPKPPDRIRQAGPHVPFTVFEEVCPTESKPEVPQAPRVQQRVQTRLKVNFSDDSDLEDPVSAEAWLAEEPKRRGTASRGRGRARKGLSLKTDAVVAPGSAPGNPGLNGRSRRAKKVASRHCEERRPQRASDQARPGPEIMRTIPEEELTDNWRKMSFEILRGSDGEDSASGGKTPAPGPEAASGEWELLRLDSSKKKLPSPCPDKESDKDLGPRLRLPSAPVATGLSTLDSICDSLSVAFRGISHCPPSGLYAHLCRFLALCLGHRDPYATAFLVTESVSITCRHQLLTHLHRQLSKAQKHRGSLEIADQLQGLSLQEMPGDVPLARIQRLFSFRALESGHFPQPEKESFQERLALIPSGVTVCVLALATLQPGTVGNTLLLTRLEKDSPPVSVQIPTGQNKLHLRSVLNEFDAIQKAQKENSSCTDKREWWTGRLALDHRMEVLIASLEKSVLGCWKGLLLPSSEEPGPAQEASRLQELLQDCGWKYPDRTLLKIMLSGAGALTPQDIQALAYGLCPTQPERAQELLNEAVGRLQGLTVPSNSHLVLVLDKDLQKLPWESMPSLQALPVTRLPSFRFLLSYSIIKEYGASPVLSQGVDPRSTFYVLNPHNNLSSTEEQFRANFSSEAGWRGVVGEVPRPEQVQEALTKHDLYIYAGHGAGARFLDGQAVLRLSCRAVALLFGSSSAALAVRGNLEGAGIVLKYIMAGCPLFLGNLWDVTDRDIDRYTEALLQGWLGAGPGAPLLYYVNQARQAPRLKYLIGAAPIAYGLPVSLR
molecule,measurement,setting,value
"active human separase, securin-free (ClpXP-activated separase obtained from the securin-separase fusion after TEV protease cleavage and ClpXP removal of securin)",cleavage of securin^RE fragment,[1],This fragment was 50% cleaved by separase
same,KM,[2],KM of 70±30 µM
same,cleavage in trans,[3],Separase also cleaved a catalytically-dead separase with intact autocleavage sites
same,cleavage of an Scc1 fragment in vitro,[4],"incubation with purified ClpXP removed securin and activated separase, as evaluated by cleavage of an Scc1 fragment in vitro"
securinΔ127-separase,peptide cleavage activity (Michaelis-Menten),[2],no significant differences between the peptide cleavage activities of the three securinΔ-separase proteins and separase with no securin bound
same,cleavage of the Scc1 fragment in the gel-based assay,[4],exhibited no cleavage activity in this assay
securinΔ138-separase,peptide cleavage activity (Michaelis-Menten),[2],no significant differences between the peptide cleavage activities of the three securinΔ-separase proteins and separase with no securin bound
same,cleavage of the Scc1 fragment in the gel-based assay,[4],exhibited efficient cleavage of the Scc1 substrate
securinΔ160-separase,peptide cleavage activity (Michaelis-Menten),[2],no significant differences between the peptide cleavage activities of the three securinΔ-separase proteins and separase with no securin bound
same,cleavage of the Scc1 fragment in the gel-based assay,[4],exhibited efficient cleavage of the Scc1 substrate
separase in human U2OS cells (endogenous),biosensor cleavage during anaphase,[5],efficient biosensor cleavage was observed during anaphase
same,biosensor cleavage efficiency,[6],reduced cleavage efficiency by 50%
same,biosensor cleavage efficiency,[7],yielded identical results as the double alanine mutation
"securin^RE fragment containing residues 93-150 (other, also: 35S-methionine label, Pseudosubstrate motif converted into a separase cleavage site; Translated in vitro with ZZ tag, released by TEV protease; also called 35S-labeled securin fragment (aa 93-150)) MTEKTVKAKSSVPASDDAYPEIEKFREFNPLDFESFDLPEEHQIAHLPLSGVPLMILD",binding result,[8],binds
